Experimental data from publication PMC9352680, “A comprehensive thermodynamic model for RNA binding by the Saccharomyces cerevisiae Pumilio protein PUF4”.

T1: PUF4 RNA-binding domain (Saccharomyces cerevisiae, UniProt P25339 537-888)
T1 sequence: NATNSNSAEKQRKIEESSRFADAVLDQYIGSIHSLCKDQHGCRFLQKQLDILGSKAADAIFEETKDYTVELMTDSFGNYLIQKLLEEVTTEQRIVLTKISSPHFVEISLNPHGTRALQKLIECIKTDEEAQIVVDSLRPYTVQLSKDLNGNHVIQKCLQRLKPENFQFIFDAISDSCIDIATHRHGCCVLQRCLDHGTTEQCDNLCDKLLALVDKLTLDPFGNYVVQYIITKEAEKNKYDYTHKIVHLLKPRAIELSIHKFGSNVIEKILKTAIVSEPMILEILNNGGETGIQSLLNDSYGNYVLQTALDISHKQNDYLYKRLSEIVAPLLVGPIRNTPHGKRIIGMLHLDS


What follows are binders tested against T1, PUF4 RNA-binding domain (assay: Mg; RNA-MaP; 20 mM Na-HEPES pH 7.4, 30 mM KOAc, 0.75 mM MgCl2, 0.1% Tween-20, 5% glycerol, 0.1 mg/mL BSA, 2 mM DTT; 25 C; 0.0125-409.6 nM protein). Conditions: tags: N-His6-TEV cleaved; C-SNAP kept, Cy3B-labelled; label: tethered on chip by stalled RNA polymerase.

First: UCUCUUCAUAUAUUAUUACGUCUCUU (ssRNA) [Id_ii_S1_P5E.3_K5.2_C5.2_[T-1A]_H5.2_A5.1_F5.1_T5.2_[T11C]_[A12G]]
Second: UCUCUUAUUAUAUUAUUACAUCUCUU (ssRNA) [Id_ii_S1_P5E.3_K5.2_C5.2_[C-2A]_H5.2_A5.1_F5.1_T5.2_[T11C]]
The Kd of the first is 3.4-fold higher: 440 nM for the first, 128 nM for the second.

Going from UCUCUUCAUAUAUUAUUAAUUCUCUU (ssRNA) [Id_ii_S1_P5E.3_K5.2_C5.2_[T-1A]_H5.2_A5.1_F5.1_T5.2_[T11A]_[A12T]] to UCUCUUCGUAUAUUAUUAAAUCUCUU (ssRNA) [Id_ii_S1_P5E.3_K5.2_C5.2_[T-1G]_H5.2_A5.1_F5.1_T5.2_[T11A]], the Kd falls from 424 nM to 38.8 nM (11-fold). The second binds more tightly here.

Compared with UCUCUUACUAUAUUAUUAAUUCUCUU (ssRNA) [Id_ii_S1_P5E.3_K5.2_C5.2_[C-2A]_[T-1C]_H5.2_A5.1_F5.1_T5.2_[T11A]_[A12T]], UCUCUUUAUAUAUUAUUAAUUCUCUU (ssRNA) [Id_ii_S1_P5E.3_K5.2_C5.2_[C-2T]_[T-1A]_H5.2_A5.1_F5.1_T5.2_[T11A]_[A12T]] is 22-fold lower in Kd: 453 nM for the first, 21 nM for the second. The second binds more tightly here.

First: UCUCUUCCUAUAUUAUUAAAUCUCUU (ssRNA) [Id_ii_S1_P5E.3_K5.2_C5.2_[T-1C]_H5.2_A5.1_F5.1_T5.2_[T11A]]
Second: UCUCUUUAUAUAUUAUUAAAUCUCUU (ssRNA) [Id_ii_S1_P5E.3_K5.2_C5.2_[C-2T]_[T-1A]_H5.2_A5.1_F5.1_T5.2_[T11A]]
The Kd of the first is 27-fold higher: 683 nM for the first, 25.4 nM for the second.

UCUCUUCCUAUAUUAUUAUCUCUCUU (ssRNA) [Id_ii_S1_P5E.3_K5.2_C5.2_[T-1C]_H5.2_A5.1_F5.1_T5.2_[A12C]] and UCUCUUCCUAUAUUAUUAACUCUCUU (ssRNA) [Id_ii_S1_P5E.3_K5.2_C5.2_[T-1C]_H5.2_A5.1_F5.1_T5.2_[T11A]_[A12C]] are within 1.5-fold of each other in Kd: 532 nM for the first, 620 nM for the second.

Going from UCUCUUAUUAUAUUAUUAGCUCUCUU (ssRNA) [Id_ii_S1_P5E.3_K5.2_C5.2_[C-2A]_H5.2_A5.1_F5.1_T5.2_[T11G]_[A12C]] to UCUCUUUAUAUAUUAUUAUUUCUCUU (ssRNA) [Id_ii_S1_P5E.3_K5.2_C5.2_[C-2T]_[T-1A]_H5.2_A5.1_F5.1_T5.2_[A12T]], the Kd falls from 208 nM to 17.6 nM (12-fold).

First: UCUCUUCAUAUAUUAUUAACUCUCUU (ssRNA) [Id_ii_S1_P5E.3_K5.2_C5.2_[T-1A]_H5.2_A5.1_F5.1_T5.2_[T11A]_[A12C]]
Second: UCUCUUCCUAUAUUAUUACAUCUCUU (ssRNA) [Id_ii_S1_P5E.3_K5.2_C5.2_[T-1C]_H5.2_A5.1_F5.1_T5.2_[T11C]]
The Kd of the first is 2.7-fold lower: 218 nM for the first, 592 nM for the second.

UCUCUUUAUAUAUUAUUAACUCUCUU (ssRNA) [Id_ii_S1_P5E.3_K5.2_C5.2_[C-2T]_[T-1A]_H5.2_A5.1_F5.1_T5.2_[T11A]_[A12C]] and UCUCUUUAUAUAUUAUUAUCUCUCUU (ssRNA) [Id_ii_S1_P5E.3_K5.2_C5.2_[C-2T]_[T-1A]_H5.2_A5.1_F5.1_T5.2_[A12C]] are within 1.5-fold of each other in Kd: 15.9 nM for the first, 21 nM for the second.

UCUCUUUUUAUAUUAUUAUUUCUCUU (ssRNA) [Id_ii_S1_P5E.3_K5.2_C5.2_[C-2T]_H5.2_A5.1_F5.1_T5.2_[A12T]] and UCUCUUAUUAUAUUAUUACCUCUCUU (ssRNA) [Id_ii_S1_P5E.3_K5.2_C5.2_[C-2A]_H5.2_A5.1_F5.1_T5.2_[T11C]_[A12C]] are within 1.5-fold of each other in Kd: 181 nM for the first, 203 nM for the second.

First: UCUCUUUGUAUUACCAUCUCUU (ssRNA) [Ib_S1_P5E.1_K5.1_C5.1_H5.1_A5.1_F5.1_[T8C]_[T9C]_T5.1]
Second: UCUCUUCGUAUAUUAUUAUCUCUCUU (ssRNA) [Id_ii_S1_P5E.3_K5.2_C5.2_[T-1G]_H5.2_A5.1_F5.1_T5.2_[A12C]]
The Kd of the first is 16-fold higher: 287 nM for the first, 18.4 nM for the second. The second binds more tightly here.

First: UCUCUUCCUAUAUUAUUACUUCUCUU (ssRNA) [Id_ii_S1_P5E.3_K5.2_C5.2_[T-1C]_H5.2_A5.1_F5.1_T5.2_[T11C]_[A12T]]
Second: UCUCUUACUAUAUUAUUAACUCUCUU (ssRNA) [Id_ii_S1_P5E.3_K5.2_C5.2_[C-2A]_[T-1C]_H5.2_A5.1_F5.1_T5.2_[T11A]_[A12C]]
The Kd of the first is 1.5-fold lower: 456 nM for the first, 706 nM for the second.

First: UCUCUUCGUAUAUUAUUAUUUCUCUU (ssRNA) [Id_ii_S1_P5E.3_K5.2_C5.2_[T-1G]_H5.2_A5.1_F5.1_T5.2_[A12T]]
Second: UCUCUUCCUAUAUUAUUAAGUCUCUU (ssRNA) [Id_ii_S1_P5E.3_K5.2_C5.2_[T-1C]_H5.2_A5.1_F5.1_T5.2_[T11A]_[A12G]]
The Kd of the first is 37-fold lower: 26.6 nM for the first, 971 nM for the second. The first binds more tightly here.

Compared with UCUCUUUAUAUAUUAUUACCUCUCUU (ssRNA) [Id_ii_S1_P5E.3_K5.2_C5.2_[C-2T]_[T-1A]_H5.2_A5.1_F5.1_T5.2_[T11C]_[A12C]], UCUCUUUGUAUUAGUGUCUCUU (ssRNA) [Ib_S1_P5E.1_K5.1_C5.1_H5.1_A5.1_F5.1_[T8G]_[A10G]_T5.1] is 27-fold higher in Kd: 14.1 nM for the first, 386 nM for the second.

First: UCUCUUUUUAUAUUAUUACUUCUCUU (ssRNA) [Id_ii_S1_P5E.3_K5.2_C5.2_[C-2T]_H5.2_A5.1_F5.1_T5.2_[T11C]_[A12T]]
Second: UCUCUUAUUAUAUUAUUAACUCUCUU (ssRNA) [Id_ii_S1_P5E.3_K5.2_C5.2_[C-2A]_H5.2_A5.1_F5.1_T5.2_[T11A]_[A12C]]
The Kd of the first is 2.6-fold higher: 414 nM for the first, 159 nM for the second.

Going from UCUCUUCAUAUAUUAUUAGUUCUCUU (ssRNA) [Id_ii_S1_P5E.3_K5.2_C5.2_[T-1A]_H5.2_A5.1_F5.1_T5.2_[T11G]_[A12T]] to UCUCUUCCUAUAUUAUUAAUUCUCUU (ssRNA) [Id_ii_S1_P5E.3_K5.2_C5.2_[T-1C]_H5.2_A5.1_F5.1_T5.2_[T11A]_[A12T]], the Kd rises from 141 nM to 779 nM (5.5-fold).

UCUCUUACUAUAUUAUUAAAUCUCUU (ssRNA) [Id_ii_S1_P5E.3_K5.2_C5.2_[C-2A]_[T-1C]_H5.2_A5.1_F5.1_T5.2_[T11A]] was tested, and the Kd was 626 nM.
